From the DeepSol protein solubility set come the findings set out here.

The series can be described thus: soluble on expression in E. coli; label from the status in PepcDB or PDB records.
As for “TVDKRYLNDEHFIDPELVSQRAAPLTEADKQILADKSLGYRVLNLTVDTYNDATTSRWHRSIGGYHAAKLQRYQDLIEHQLSKGNREVVNMLNTKYIIVPGENNRPSPMSNPDAYGPAWPAGSIRWVGNANEEMMALDSNRLTRDIAVVDERFSSESLKRLPALTDSTASISLKEYAPNRQVYEAVSTQPMLGIFSEIYYPHGWTATIDNQAVPIIRANYILRALEVPAGRHKIEFRFDPKSLHITEAIAKT”, the “soluble on expression in E. coli” value was “not soluble”. Regarding “MNMNAKIIDQDNKGIGVRVHDNDETEHTVAVGFDGEIQGHSQDGYPDDPAKRTGKENEYVSQARRYAKYYVAKEKGYDVLPWDRDTAAMQRVQTAIESLSDEDFEKYFGTYFDQINSRLPNVTAPVPEPDAVGDDEFVLYLLDVYLDEAGRIEAVSDIHFLYLDDNRERQVVLGDQPLNRDPDARLQLKPNYLPSLEVAQEFFVYHLRCQIRDCYLLRGEEPPEQYRVIGPGLYDAATRYLYEDRPYRPYHKLHADIPGYSLEFDYGFGEQGKEMAKIAGAVADNK”, the “soluble on expression in E. coli” value was “not soluble”. In the case of “AHHHHHHGSPIRKVMKANEAAAWAAKLAKPKVIAAFPITPSTLIPEKISEFVANGELDAEFIKVESEHSAISACVGAAAAGVRTFTATASQGLALMHEILFIAAGMRLPIVMAIGNRALSAPINIWNDWQDTISQRDTGWMQFYAENNQEALDLILIAYKVAEDERVLLPAMVGFDAFILTHTVEPVEIPDQEVVDEFLGEYEPKHAYIDPARPITQGSLAFPAHYMESRYTVWEAMERAKKVIDEAFAEFEKKFGRKYQKIEEYKTEDADIIFVTMGSLAGTLKEWIDKKREEGYKVGAAKITVYRPFPVEEIRELAKKAKVLAFLEKNITIGLYGAVFTDASAALINESEKPLMVDFIVGLGGRDVTFNQLDEALEIAEKALKEGKVENPINWIGLRWELVK” it was “soluble”; in that of “MILQELPDLEELFLCLNDYETVSCPSICCHSLKLLHITDNNLQDWTEIRKLGVMFPSLDTLVLANNHLNAIEEPDDSLARLFPNLRSISLHKSGLQSWEDIDKLNSFPKLEEVRLLGIPLLQPYTTEERRKLVIARLPSVSKLNGSVVTDGEREDSERFFIRYYVDVPQEEVPFRYHELITKYGKLEPLAEVDLRPQSSAKVEVHFNDQVEEMSIRLDQTVAELKKQLKTLVQLPTSNMLLYYFDHEAPFGPEEMKYSSRALHSFGIRDGDKIYVESKTK”, “soluble”. In the case of “MSLKPSTRSNVQPFRVMQMLDRVHRRRREGKDTLMFCAGQPSTGAPEAVIEEAEIALRSGPLGYTEVIGDREFRERIADWHSATYDVDTNPDNVIVTTGSSGGFVASFIATLDHGDYVAMPTPGYPAYRNILESLGAKVLNLRCTAETRFQPTAQMLEELPHKPKAVIVTSPGNPTGTIIDPEELERIAKWCDDNDAVLISDEDYHGMSFGRPLATAHQFSKNAIVVGTLSKYFSMTGWRVGWIIVPDELVTPIENLQASLSLCAPAIGQAAGRAAFTLEAGAELDAHVEAYREAREVFVDKLPEIGLGTFADPDGGLYLWVDVSAYTDDSEEWALRLLDEAGVAVAPGVDFDPEEGHKWIRLSLCASKEDTIEGVRKIGEFIKKEGHHHHHH” it was “soluble”.

Regarding “REEYYVWDKEASINFIKPGQSDLFAEFEITDGMLDEIYQMTRNGEKCFPEFITHVKDKQGNVVSEVQRKLYVRKKPQYREEEAVTEVP”, the “soluble on expression in E. coli” value was “not soluble”.

For “MTQPEAVFFDCDGTLVDSEVICSRAYVHMFQEFGITLDLAEIFKRFKGVKLYEIIDTINAEYGVNLQKATLEPIYRAEVARLFDSELEVIPGAQALLDAVSVPMCVVSNGPVSKMQHSLGRTGLLRHFTDRLYSGYDIQRWKPDPALMFHAAEAMQVKAENCILVDDSSAGAQSGIAAGMEVFYFCADPHNQPIDHPKVTTFTDLAELPALWQARGWDITR”, the “soluble on expression in E. coli” value is “not soluble”. For “MGSDKIHHHHHHMNLLSPSDPIVLSTAYLPPIQYFTKLLHPEGVLLETAENFVKQSYRNRCHIAGPEGMQPLTIPVEKSPSPKAPIRDIRISEHGNWRHLHLNALISSYGSAPFFDHYMTEIEPFYRHKYTFLWDFNLDLLSVCLEWLDISPLIMFTFEYVEDCPNDFRYSIRPKQAPEDESFRPRVYYRTFAHKYGFLPNLSIVDLIFHEGPSAIQTLKECIR” the value was “not soluble”; for “MGSDKIHHHHHHMEIRPEMFGQARAGAAWPDFGKPHVLRCDTGRSALKLALQCWAGRAGRDFTVWLPHYVCHSVAQAVRQAGHALAYYGHRPSEQIFSPPPTPQAGDLVLLVHYFGLRNRAALDWLSAHATRDFAVLEDCVQSPYTAGVGRLADFAISSLRKWWPTPDGATLASVYALDGLDLAASDEAFISQRMAAKQLRARGIGEERYLQWIDESESRLDDVVPRQASWLAASLLGEADIDVAMAARRENWFALAQGLAGLRGVAPLFRELAVDEIPLAYPVVVSATNRQKLRAALRDRRVFCPVHWDLESDAPEADTLLSARILSIPLDQRYAPADMRKVASMIGEFIAEELN”, “not soluble”; for “ASGRRAPRTGLLELRCGAGSGAGGERWQRVLLSLAEDALTVSPADGEPGPEPEPAQLNGAAEPGAAPPQLPEALLLQREVSPYFKNSAGGTSVGWDSPPASPLQRQPSSPGPQPRNLSEAKHVSLKMAYVSRRCTPTDPEPRYLEICAADGQDAVFLRAKDEASARSWAGAIQAQIGT”, “soluble”. In the case of “GPGSMAIPPLRASDLSSPSPSIAPQRERTRSVGTRLRTSITRDDAERVLPASSSQVETLARDATTTCEQQLMQEEELCGPSYREVEGRRPSRALSPSGAGDTSGVEDGGRARGREYVEDSDDEDVYNSHVARRIRAFLDSIKAEDFTRNPSPVDVTGMAANGEGIDEEALRQQWLERATVDEARSIAAEAQRELLIVLHDAITLETDLAEMSEDAAVLERAVNHREETVEMLKMQLSIADEYNEELHGAKKEALRKLSDAKTEIALLSQRNATLSKQLHEKEKALQLSLARSASASARTSPPAAERRDEGTITTAELQSALIAATASTGLPNNGSLSTPSSPAQHGECELKGMLRKLQLVCDTLQSTVTAKADLDQQLRQWTMGVGESRADAAACGSASSDAGISQPHGERCAPTDAEQRLLRRRCEDVARCIDSLENDIRMLRAKVRAQQACTDAVEGGSAGRRRSAAEAEAATRPQPVETPGPASASATLPEGPGGSGGCAEPADSNLAFLQRQLDRAQADARRLESELRAEREKSQRQSAAEKKLLENVAYLTRKLRAREALDREARLQRRGEKGGTHGDGGDTADGRRTLLYPHRFSHGDSAGVRRGASTAAGDVCGEGAPTSALRRVNREADAVGMGAATAAARKGRANSQELRQRRESVFAALRDAQRASDERRSSHVVSDTRRSSDVQTSFSPILPTSSSRDAALKASGNAVKSGTRATTPTLTPSRG” it was “not soluble”; in that of “MGSDKIHHHHHHMWTGFFSKSGTGIAEERHQNRRACTDVPLLAERNSKHPDRPYGFAKYRQSGLDIYAWHGIYFFPRFPFIDIDCIRWVCAGLKAFKHYIRENGLPDLIHAHRMNYAGILAQKISQKYGIPYVVTEHSSTITRGLIRPHQWQPMEKAAAHASALLAVSRHFAHVLQHKYGCEWQYLPPTYWAEYSTDRLNKEKKTTNRISCSAPSRTFAVSKDTMSYSLPLPGRWHNARNCA”, “not soluble”; in that of “MKIFLDSAITTDIQDRLATEIIDGVTTNPTLIKKSNEDPDVVYKELYDMRVKDISIEVRGDTAQELAANGILYGRKYGEVATIKLPCTVEGIKACKKLSILGHKTNMTLVFSVSQAILCAKAGATYVSPFVGRLDQIGEDGIQLIRDISRVYCVSGVKTQILAASIRSPKQAEDAYLAGADICTLPVKVFDQMFKHTLTDDGLKQFAIDFGINF”, “not soluble”. On to “YLLGHSLGELTCLSVNSLFSLKDLFDIANFRNKLMVTSTEKYLVAHNINRSNKFEMWALSSPRATDLPQEVQKLLNSPNLLSSSQNTISVANANSVKQCVVTGLVDDLESLRTELNLRFPRLRITELTNPYNIPFHNSTVLRPVQEPLYDYIWDILKKNGTHTLMELNHPIIANLDGNISYYIHHALDRFVKCSSRTVQFTMCYDTINSGTPVEIDKSICFGPGNVIYNLIRRNCPQVDTIEYTS”, for which the “soluble on expression in E. coli” value is listed as “soluble”.
